# Paper PMC9482650, “Quantitative fragmentomics allow affinity mapping of interactomes” (Nature Communications, 2022)
# T1: GRIP1_5, Q9Y3R0
# T1 sequence (Q9Y3R0 568-668, limits assumed, looked up): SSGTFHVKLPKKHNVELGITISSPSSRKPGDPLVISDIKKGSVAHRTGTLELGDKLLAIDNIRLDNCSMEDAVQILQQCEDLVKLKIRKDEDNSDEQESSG
# T2: HTRA3, P83110
# T2 sequence (P83110 354-453, limits assumed, looked up): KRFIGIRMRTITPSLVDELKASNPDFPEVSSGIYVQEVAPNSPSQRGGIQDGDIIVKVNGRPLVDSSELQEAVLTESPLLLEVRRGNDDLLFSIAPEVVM
# T3: DVL3, Q92997
# T3 sequence (Q92997 244-331, limits assumed, looked up): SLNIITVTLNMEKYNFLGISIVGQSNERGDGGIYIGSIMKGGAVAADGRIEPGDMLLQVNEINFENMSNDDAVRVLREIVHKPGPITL
# T4: APBA3_1, O96018
# T4 sequence (O96018 389-490, limits assumed, looked up): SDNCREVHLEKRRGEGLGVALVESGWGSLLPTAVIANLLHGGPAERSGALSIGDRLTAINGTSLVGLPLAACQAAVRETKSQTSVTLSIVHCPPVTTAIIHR
# T5: LRRC7, Q96NW7
# T5 sequence (Q96NW7 1440-1537, limits assumed, looked up): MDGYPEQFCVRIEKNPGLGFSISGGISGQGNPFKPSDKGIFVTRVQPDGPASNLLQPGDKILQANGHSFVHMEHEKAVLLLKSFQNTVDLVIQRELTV
# T6: LNX2_3, Q8N448
# T6 sequence (Q8N448 463-564, limits assumed, looked up): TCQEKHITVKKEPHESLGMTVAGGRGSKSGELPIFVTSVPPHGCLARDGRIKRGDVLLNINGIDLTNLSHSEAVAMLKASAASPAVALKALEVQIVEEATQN
# T7: CARD11, Q9BXL7
# T7 sequence (Q9BXL7 662-765, limits assumed, looked up): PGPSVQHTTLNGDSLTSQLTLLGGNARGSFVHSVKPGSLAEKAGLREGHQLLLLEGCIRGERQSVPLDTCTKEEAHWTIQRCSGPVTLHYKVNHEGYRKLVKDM
# T8: SNTB1, Q13884
# T8 sequence (Q13884 107-205, limits assumed, looked up): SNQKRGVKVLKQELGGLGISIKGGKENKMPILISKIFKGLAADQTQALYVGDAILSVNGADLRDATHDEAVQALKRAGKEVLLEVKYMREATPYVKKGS
# T9: MPP7, Q5T2T1
# T9 sequence (Q5T2T1 134-230, limits assumed, looked up): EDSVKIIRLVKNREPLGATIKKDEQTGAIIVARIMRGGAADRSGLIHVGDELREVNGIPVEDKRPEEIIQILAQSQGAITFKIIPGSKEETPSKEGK
# T10: TJP3_3, O95049
# T10 sequence (O95049 375-456, limits assumed, looked up): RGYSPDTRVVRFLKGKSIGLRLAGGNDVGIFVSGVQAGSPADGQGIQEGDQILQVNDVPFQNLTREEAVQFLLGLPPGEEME
# What was measured:
# Experiment in all cases: holdup assay
# Parameters in all cases: key: below the threshold = too weak to quantify, mostly under pKd 3.1 to 4
# GRIP1_5, Q9Y3R0 = molecular target: T1, GRIP1_5, Q9Y3R0
# LNX1_1, Q8TBB1 = molecular target: LNX1_1, Q8TBB1
# Chain of LNX1_1, Q8TBB1 (Q8TBB1 261-371): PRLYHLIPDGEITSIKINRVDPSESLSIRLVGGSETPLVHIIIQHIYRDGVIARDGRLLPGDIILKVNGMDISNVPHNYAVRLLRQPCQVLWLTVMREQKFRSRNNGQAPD
# HTRA3, P83110 = molecular target: T2, HTRA3, P83110
# GRIP2_6, Q9C0E4 = molecular target: GRIP2_6, Q9C0E4
# Chain of GRIP2_6, Q9C0E4 (Q9C0E4 648-740): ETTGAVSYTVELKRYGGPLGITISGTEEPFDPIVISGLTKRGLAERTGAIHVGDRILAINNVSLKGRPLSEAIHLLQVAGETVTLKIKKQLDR
# MAGI3_2, Q5TCQ9 = molecular target: MAGI3_2, Q5TCQ9
# Chain of MAGI3_2, Q5TCQ9 (Q5TCQ9 398-503): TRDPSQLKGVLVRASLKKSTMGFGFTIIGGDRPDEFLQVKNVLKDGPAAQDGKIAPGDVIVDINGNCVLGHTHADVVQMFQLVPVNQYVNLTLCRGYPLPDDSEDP
# DVL3, Q92997 = molecular target: T3, DVL3, Q92997
# DLG4_3, P78352 = molecular target: DLG4_3, P78352
# Chain of DLG4_3, P78352 (P78352 306-403): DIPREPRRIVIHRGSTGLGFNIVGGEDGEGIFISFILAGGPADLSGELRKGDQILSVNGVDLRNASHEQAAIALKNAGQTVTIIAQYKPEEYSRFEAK
# APBA3_1, O96018 = molecular target: T4, APBA3_1, O96018
# HTRA2, O43464 = molecular target: HTRA2, O43464
# Chain of HTRA2, O43464 (O43464 355-458): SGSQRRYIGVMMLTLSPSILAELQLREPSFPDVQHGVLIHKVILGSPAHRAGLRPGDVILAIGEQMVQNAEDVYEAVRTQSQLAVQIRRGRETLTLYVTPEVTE
# LRRC7, Q96NW7 = molecular target: T5, LRRC7, Q96NW7
# DLG2_2, Q15700 = molecular target: DLG2_2, Q15700
# Chain of DLG2_2, Q15700 (Q15700 189-283): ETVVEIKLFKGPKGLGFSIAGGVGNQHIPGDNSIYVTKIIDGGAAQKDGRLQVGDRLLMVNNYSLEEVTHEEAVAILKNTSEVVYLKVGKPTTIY
# LNX2_3, Q8N448 = molecular target: T6, LNX2_3, Q8N448
# NHERF4_1, Q86UT5-2 = molecular target: NHERF4_1, Q86UT5-2
# Chain of NHERF4_1, Q86UT5-2 (Q86UT5 other isoform, or with tags, fused parts or gaps): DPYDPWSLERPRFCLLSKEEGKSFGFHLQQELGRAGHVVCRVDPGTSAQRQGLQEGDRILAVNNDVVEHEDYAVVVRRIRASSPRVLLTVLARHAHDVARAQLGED
# GORASP2, Q9H8Y8 = molecular target: GORASP2, Q9H8Y8
# Inadl_6, Q8NI35 = molecular target: Inadl_6, Q8NI35
# Chain of Inadl_6, Q8NI35 (Q8NI35 1058-1167): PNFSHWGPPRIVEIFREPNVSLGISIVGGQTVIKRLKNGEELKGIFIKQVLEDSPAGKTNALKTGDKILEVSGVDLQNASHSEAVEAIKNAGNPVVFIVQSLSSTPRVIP
# CARD11, Q9BXL7 = molecular target: T7, CARD11, Q9BXL7
# FRMPD3, Q5JV73 = molecular target: FRMPD3, Q5JV73
# Chain of FRMPD3, Q5JV73 (Q5JV73 12-100): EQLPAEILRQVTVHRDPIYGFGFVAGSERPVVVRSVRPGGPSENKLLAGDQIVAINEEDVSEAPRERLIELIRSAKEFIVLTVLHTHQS
# PDZRN4_1, Q6ZMN7 = molecular target: PDZRN4_1, Q6ZMN7
# Chain of PDZRN4_1, Q6ZMN7 (Q6ZMN7 213-318): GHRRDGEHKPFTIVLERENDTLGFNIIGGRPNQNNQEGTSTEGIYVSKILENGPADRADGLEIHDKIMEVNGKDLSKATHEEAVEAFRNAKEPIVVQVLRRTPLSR
# GRIP2_4, Q9C0E4 = molecular target: GRIP2_4, Q9C0E4
# Chain of GRIP2_4, Q9C0E4 (Q9C0E4 446-548): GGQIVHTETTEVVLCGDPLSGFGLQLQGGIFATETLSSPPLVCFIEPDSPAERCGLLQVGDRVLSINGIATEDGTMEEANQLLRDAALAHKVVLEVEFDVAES
# LAP2, Q96RT1 = molecular target: LAP2, Q96RT1
# Chain of LAP2, Q96RT1 (Q96RT1 other isoform, or with tags, fused parts or gaps): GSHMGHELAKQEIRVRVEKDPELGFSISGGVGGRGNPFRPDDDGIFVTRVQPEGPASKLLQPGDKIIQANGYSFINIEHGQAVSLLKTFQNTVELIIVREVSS
# SNTB1, Q13884 = molecular target: T8, SNTB1, Q13884
# MPP7, Q5T2T1 = molecular target: T9, MPP7, Q5T2T1
# GOPC, Q9HD26 = molecular target: GOPC, Q9HD26
# TJP3_3, O95049 = molecular target: T10, TJP3_3, O95049
# HTRA1, Q92743 = molecular target: HTRA1, Q92743
# Chain of HTRA1, Q92743 (Q92743 360-477): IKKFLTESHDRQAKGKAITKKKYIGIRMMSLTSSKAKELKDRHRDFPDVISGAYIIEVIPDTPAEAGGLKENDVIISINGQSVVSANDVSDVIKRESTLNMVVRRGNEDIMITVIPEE
# LNX1_2, Q8TBB1 = molecular target: LNX1_2, Q8TBB1
# Chain of LNX1_2, Q8TBB1 (Q8TBB1 371-470): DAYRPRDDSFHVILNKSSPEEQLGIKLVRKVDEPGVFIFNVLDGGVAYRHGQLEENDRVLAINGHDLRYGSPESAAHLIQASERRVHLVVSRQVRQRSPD
# TJP1_3, Q07157 = molecular target: TJP1_3, Q07157
# Chain of TJP1_3, Q07157 (Q07157 416-512): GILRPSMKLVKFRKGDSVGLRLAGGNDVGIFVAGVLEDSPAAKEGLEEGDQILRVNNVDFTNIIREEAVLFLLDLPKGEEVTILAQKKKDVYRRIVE
# [1] = plain residues with an end cap or a label only (N-terminal biotin on a linker: ado-ado)
# [2] = plain residues with an end cap or a label only (N-terminal biotin on a linker: ttds)
binder,measurement,setting,value
"EDLTKNHDEL [RCN1, Q15293]",pKd,"GRIP1_5, Q9Y3R0; [1]",3.52
same,pKd,"LNX1_1, Q8TBB1; [1]",3.6
same,pKd,"HTRA3, P83110; [1]",below the threshold
same,pKd,"GRIP2_6, Q9C0E4; [1]",below the threshold
same,pKd,"MAGI3_2, Q5TCQ9; [1]",below the threshold
same,pKd,"DVL3, Q92997; [1]",below the threshold
same,pKd,"DLG4_3, P78352; [1]",4
same,pKd,"APBA3_1, O96018; [1]",below the threshold
same,pKd,"HTRA2, O43464; [1]",below the threshold
same,pKd,"LRRC7, Q96NW7; [1]",below the threshold
same,pKd,"DLG2_2, Q15700; [1]",below the threshold
same,pKd,"LNX2_3, Q8N448; [1]",3.51
same,pKd,"NHERF4_1, Q86UT5-2; [1]",3.93
same,pKd,"GORASP2, Q9H8Y8; [1]",below the threshold
same,pKd,"Inadl_6, Q8NI35; [1]",below the threshold
same,pKd,"CARD11, Q9BXL7; [1]",below the threshold
same,pKd,"FRMPD3, Q5JV73; [1]",below the threshold
same,pKd,"PDZRN4_1, Q6ZMN7; [1]",3.73
same,pKd,"GRIP2_4, Q9C0E4; [1]",below the threshold
same,pKd,"LAP2, Q96RT1; [1]",below the threshold
same,pKd,"SNTB1, Q13884; [1]",below the threshold
same,pKd,"MPP7, Q5T2T1; [1]",below the threshold
same,pKd,"GOPC, Q9HD26; [1]",3.52
same,pKd,"TJP3_3, O95049; [1]",below the threshold
same,pKd,"HTRA1, Q92743; [1]",3.5
same,pKd,"LNX1_2, Q8TBB1; [1]",3.47
same,pKd,"TJP1_3, Q07157; [1]",3.48
"LDSQIQETSI [MAP4, P27816]",pKd,"GRIP1_5, Q9Y3R0; [2]",below the threshold
same,pKd,"LNX1_1, Q8TBB1; [2]",below the threshold
same,pKd,"HTRA3, P83110; [2]",below the threshold
same,pKd,"GRIP2_6, Q9C0E4; [2]",below the threshold
same,pKd,"MAGI3_2, Q5TCQ9; [2]",3.57
same,pKd,"DVL3, Q92997; [2]",below the threshold
same,pKd,"DLG4_3, P78352; [2]",3.61
same,pKd,"APBA3_1, O96018; [2]",below the threshold
same,pKd,"HTRA2, O43464; [2]",below the threshold
same,pKd,"LRRC7, Q96NW7; [2]",below the threshold
same,pKd,"DLG2_2, Q15700; [2]",3.9
same,pKd,"LNX2_3, Q8N448; [2]",below the threshold
same,pKd,"NHERF4_1, Q86UT5-2; [2]",below the threshold
same,pKd,"GORASP2, Q9H8Y8; [2]",below the threshold
same,pKd,"Inadl_6, Q8NI35; [2]",4.13
same,pKd,"CARD11, Q9BXL7; [2]",below the threshold
same,pKd,"FRMPD3, Q5JV73; [2]",below the threshold
same,pKd,"PDZRN4_1, Q6ZMN7; [2]",4.84
same,pKd,"GRIP2_4, Q9C0E4; [2]",below the threshold
same,pKd,"LAP2, Q96RT1; [2]",3.86
same,pKd,"SNTB1, Q13884; [2]",4.93
same,pKd,"MPP7, Q5T2T1; [2]",below the threshold
same,pKd,"GOPC, Q9HD26; [2]",4.14
same,pKd,"TJP3_3, O95049; [2]",below the threshold
same,pKd,"HTRA1, Q92743; [2]",below the threshold
same,pKd,"LNX1_2, Q8TBB1; [2]",below the threshold
same,pKd,"TJP1_3, Q07157; [2]",below the threshold
"DEDQHTQITKV [PTEN, P60484]",pKd,"GRIP1_5, Q9Y3R0; [2]",3.72
same,pKd,"LNX1_1, Q8TBB1; [2]",below the threshold
same,pKd,"HTRA3, P83110; [2]",below the threshold
same,pKd,"GRIP2_6, Q9C0E4; [2]",3.49
same,pKd,"MAGI3_2, Q5TCQ9; [2]",4.03
same,pKd,"DVL3, Q92997; [2]",below the threshold
same,pKd,"DLG4_3, P78352; [2]",3.56
same,pKd,"APBA3_1, O96018; [2]",below the threshold
same,pKd,"HTRA2, O43464; [2]",below the threshold
same,pKd,"LRRC7, Q96NW7; [2]",below the threshold
same,pKd,"DLG2_2, Q15700; [2]",3.55
same,pKd,"LNX2_3, Q8N448; [2]",below the threshold
same,pKd,"NHERF4_1, Q86UT5-2; [2]",3.51
same,pKd,"GORASP2, Q9H8Y8; [2]",3.82
same,pKd,"Inadl_6, Q8NI35; [2]",3.82
same,pKd,"CARD11, Q9BXL7; [2]",below the threshold
same,pKd,"FRMPD3, Q5JV73; [2]",below the threshold
same,pKd,"PDZRN4_1, Q6ZMN7; [2]",3.62
same,pKd,"GRIP2_4, Q9C0E4; [2]",below the threshold
same,pKd,"LAP2, Q96RT1; [2]",3.82
same,pKd,"SNTB1, Q13884; [2]",4.08
same,pKd,"MPP7, Q5T2T1; [2]",below the threshold
same,pKd,"GOPC, Q9HD26; [2]",4.24
same,pKd,"TJP3_3, O95049; [2]",below the threshold
same,pKd,"HTRA1, Q92743; [2]",4.27
same,pKd,"LNX1_2, Q8TBB1; [2]",3.77
same,pKd,"TJP1_3, Q07157; [2]",below the threshold
"NYWPGKETQL [SLCO1C1, Q9NYB5]",pKd,"GRIP1_5, Q9Y3R0; [2]",below the threshold
same,pKd,"LNX1_1, Q8TBB1; [2]",below the threshold
same,pKd,"HTRA3, P83110; [2]",below the threshold
same,pKd,"GRIP2_6, Q9C0E4; [2]",below the threshold
same,pKd,"MAGI3_2, Q5TCQ9; [2]",4.75
same,pKd,"DVL3, Q92997; [2]",below the threshold
same,pKd,"DLG4_3, P78352; [2]",4.18
same,pKd,"APBA3_1, O96018; [2]",below the threshold
same,pKd,"HTRA2, O43464; [2]",below the threshold
same,pKd,"LRRC7, Q96NW7; [2]",4.31
same,pKd,"DLG2_2, Q15700; [2]",4.9
same,pKd,"LNX2_3, Q8N448; [2]",below the threshold
same,pKd,"NHERF4_1, Q86UT5-2; [2]",4.04
same,pKd,"GORASP2, Q9H8Y8; [2]",3.98
same,pKd,"Inadl_6, Q8NI35; [2]",4.61
same,pKd,"CARD11, Q9BXL7; [2]",below the threshold
same,pKd,"FRMPD3, Q5JV73; [2]",below the threshold
same,pKd,"PDZRN4_1, Q6ZMN7; [2]",5.47
same,pKd,"GRIP2_4, Q9C0E4; [2]",below the threshold
same,pKd,"LAP2, Q96RT1; [2]",3.92
same,pKd,"SNTB1, Q13884; [2]",5.42
same,pKd,"MPP7, Q5T2T1; [2]",below the threshold
same,pKd,"GOPC, Q9HD26; [2]",4.32
same,pKd,"TJP3_3, O95049; [2]",below the threshold
same,pKd,"HTRA1, Q92743; [2]",below the threshold
same,pKd,"LNX1_2, Q8TBB1; [2]",below the threshold
same,pKd,"TJP1_3, Q07157; [2]",below the threshold
